Data reported in PMC8280820, “Phospho‐regulation, nucleotide binding and ion access control in potassium‐chloride cotransporters” (The EMBO Journal, 2021).

B1: KCC1Δ19 (human potassium-chloride cotransporter KCC1, isoform A, N-terminally deleted, L20-S1085) (domain or fragment, UniProt Q9UP95 20-1085, looked up)
chain: LEGLSWVDYGERAELDDSDGHGNHRESSPFLSPLEASRGIDYYDRNLALFEEELDIRPKVSSLLGKLVSYTNLTQGAKEHEEAESGEGTRRRAAEAPSMGTLMGVYLPCLQNIFGVILFLRLTWMVGTAGVLQALLIVLICCCCTLLTAISMSAIATNGVVPAGGSYFMISRSLGPEFGGAVGLCFYLGTTFAAAMYILGAIEILLTYIAPPAAIFYPSGAHDTSNATLNNMRVYGTIFLTFMTLVVFVGVKYVNKFASLFLACVIISILSIYAGGIKSIFDPPVFPVCMLGNRTLSRDQFDICAKTAVVDNETVATQLWSFFCHSPNLTTDSCDPYFMLNNVTEIPGIPGAAAGVLQENLWSAYLEKGDIVEKHGLPSADAPSLKESLPLYVVADIATSFTVLVGIFFPSVTGIMAGSNRSGDLRDAQKSIPVGTILAIITTSLVYFSSVVLFGACIEGVVLRDKYGDGVSRNLVVGTLAWPSPWVIVIGSFFSTCGAGLQSLTGAPRLLQAIAKDNIIPFLRVFGHGKVNGEPTWALLLTALIAELGILIASLDMVAPILSMFFLMCYLFVNLACAVQTLLRTPNWRPRFKYYHWALSFLGMSLCLALMFVSSWYYALVAMLIAGMIYKYIEYQGAEKEWGDGIRGLSLSAARYALLRLEEGPPHTKNWRPQLLVLLKLDEDLHVKYPRLLTFASQLKAGKGLTIVGSVIQGSFLESYGEAQAAEQTIKNMMEIEKVKGFCQVVVASKVREGLAHLIQSCGLGGMRHNSVVLGWPYGWRQSEDPRAWKTFIDTVRCTTAAHLALLVPKNIAFYPSNHERYLEGHIDVWWIVHDGGMLMLLPFLLRQHKVWRKCRMRIFTVAQMDDNSIQMKKDLAVFLYHLRLEAEVEVVEMHNSDISAYTYERTLMMEQRSQMLRQMRLTKTEREREAQLVKDRHSALRLESLYSDEEDESAVGADKIQMTWTRDKYMTETWDPSHAPDNFRELVHIKPDQSNVRRMHTAVKLNEVIVTRSHDARLVLLNMPGPPRNSEGDENYMEFLEVLTEGLERVLLVRGGGREVITIYS
modifications: phosphoserine at S88, S734 and S1050 (by proteomics analysis); not phosphorylated at T926/T983
notes: KCC1 (SLC12A4), human, isoform A, residues L20-S1085; Cloned into the pHTBV vector with and without GFP; also called KCC1 (construct Δ19); Δ19-deleted human KCC1; not shown: twin-Strep, C-terminal, cleaved; His10, C-terminal, cleaved
B2: KCC3b-PM (human potassium-chloride cotransporter KCC3 isoform B, phospho-mimetic S45D/T940D/T997D, M1-S1099) (natural protein, UniProt Q9UHW9-2 1-1099, looked up)
chain: MPHFTVTKVEDPEEGAAASISQEPSLADIKARIQDSDEPDLSQNDITGEHSQLLDDGHKKARNAYLNNSNYEEGDEYFDKNLALFEEEMDTRPKVSSLLNRMANYTNLTQGAKEHEEAENITEGKKKPTKTPQMGTFMGVYLPCLQNIFGVILFLRLTWVVGTAGVLQAFAIVLICCCCTMLTAISMSAIATNGVVPAGGSYFMISRALGPEFGGAVGLCFYLGTTFAAAMYILGAIEIFLVYIVPRAAIFHSDDALKESAAMLNNMRVYGTAFLVLMVLVVFIGVRYVNKFASLFLACVIVSILAIYAGAIKSSFAPPHFPVCMLGNRTLSSRHIDVCSKTKEINNMTVPSKLWGFFCNSSQFFNATCDEYFVHNNVTSIQGIPGLASGIITENLWSNYLPKGEIIEKPSAKSSDVLGSLNHEYVLVDITTSFTLLVGIFFPSVTGIMAGSNRSGDLKDAQKSIPIGTILAILTTSFVYLSNVVLFGACIEGVVLRDKFGDAVKGNLVVGTLSWPSPWVIVIGSFFSTCGAGLQSLTGAPRLLQAIAKDNIIPFLRVFGHSKANGEPTWALLLTAAIAELGILIASLDLVAPILSMFFLMCYLFVNLACALQTLLRTPNWRPRFRYYHWALSFMGMSICLALMFISSWYYAIVAMVIAGMIYKYIEYQGAEKEWGDGIRGLSLSAARFALLRLEEGPPHTKNWRPQLLVLLKLDEDLHVKHPRLLTFASQLKAGKGLTIVGSVIVGNFLENYGEALAAEQTIKHLMEAEKVKGFCQLVVAAKLREGISHLIQSCGLGGMKHNTVVMGWPNGWRQSEDARAWKTFIGTVRVTTAAHLALLVAKNISFFPSNVEQFSEGNIDVWWIVHDGGMLMLLPFLLKQHKVWRKCSIRIFTVAQLEDNSIQMKKDLATFLYHLRIEAEVEVVEMHDSDISAYTYERDLMMEQRSQMLRHMRLSKTERDREAQLVKDRNSMLRLTSIGSDEDEETETYQEKVHMDWTKDKYMASRGQKAKSMEGFQDLLNMRPDQSNVRRMHTAVKLNEVIVNKSHEAKLVLLNMPGPPRNPEGDENYMEFLEVLTEGLERVLLVRGGGSEVITIYS
modifications: phosphorylated at S685, T727, S930 and Y1070 (by proteomics analysis; the paper says likely only in a subset of the particles for some sites); not phosphorylated at T106/T109
notes: KCC3 (SLC12A6), human, isoform B (KCC3b), residues M1-S1099 (printed length 1099); numbers count on: the B-isoform; Synthesized gene (GenScript, Twist Bioscience) subcloned into pHTBV with C-terminal twin-strep, 10-His and GFP; also called KCC3‐PM; KCC3b (construct PM); not shown: twin-Strep, C-terminal, cleaved; His10, C-terminal, cleaved

Target: the molecule itself
Assay: cryo-EM structure; single-particle cryo-EM of the purified transporter in digitonin, 150 mM NaCl, 20 mM HEPES pH 7.5 (KCC3b-PM also in KCl); homodimer

Protein | stoichiometry N
B1 | 2
B2 | 2
